Tested on: Escherichia coli TOP10
Assay: shrunken log2 fold change of peptide-encoding DNA abundance (4.5 h post-induction vs induction); higher = less antimicrobial activity (less host growth inhibition)
Conditions: time post-induction: 4.5 h; library: site-saturation at positions 5, 18, 19, 20
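Note: peptides expressed intracellularly from a pBAD plasmid library in pooled LB shake-flask culture, induced with 0.3% L-arabinose, DNA abundance read by NGS, three biological replicates, DESeq2 with apeglm shrinkage.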

Sequence | shrunken log2 fold change
RRIRCRPPRLPRPRPRPVCGPRP | 0.268
RRIRCRPPRLPRPRPRPVDCPRP | -0.2
RRIRCRPPRLPRPRPRPVEIPRP | -0.296
RRIRCRPPRLPRPRPRPVEPPRP | -0.0281
RRIRCRPPRLPRPRPRPVFLPRP | -0.429
RRIRCRPPRLPRPRPRPVIRPRP | -0.733
RRIRCRPPRLPRPRPRPVIYPRP | -0.493
RRIRCRPPRLPRPRPRPVKCPRP | -0.432
RRIRCRPPRLPRPRPRPVKFPRP | -0.192
RRIRCRPPRLPRPRPRPVKGPRP | -0.261
RRIRCRPPRLPRPRPRPVLAPRP | -0.0206
RRIRCRPPRLPRPRPRPVMHPRP | -0.212
RRIRCRPPRLPRPRPRPVMPPRP | -0.139
RRIRCRPPRLPRPRPRPVNFPRP | -0.484
RRIRCRPPRLPRPRPRPVNHPRP | -0.444
RRIRCRPPRLPRPRPRPVNQPRP | -0.174
RRIRCRPPRLPRPRPRPVPGPRP | 0.0667
RRIRCRPPRLPRPRPRPVPMPRP | 0.998
RRIRCRPPRLPRPRPRPVQMPRP | 0.239
RRIRCRPPRLPRPRPRPVQNPRP | -0.22
RRIRCRPPRLPRPRPRPVQPPRP | 0.455
RRIRCRPPRLPRPRPRPVRNPRP | 0.0515
RRIRCRPPRLPRPRPRPVSHPRP | -0.0571
RRIRCRPPRLPRPRPRPVSMPRP | -0.0967
RRIRCRPPRLPRPRPRPVTYPRP | 0.0559

Sequence | shrunken log2 fold change
RRIRCRPPRLPRPRPRPVYMPRP | -0.788
RRIRCRPPRLPRPRPRPWADPRP | -0.0237
RRIRCRPPRLPRPRPRPWAQPRP | -0.211
RRIRCRPPRLPRPRPRPWCCPRP | -0.649
RRIRCRPPRLPRPRPRPWCDPRP | -0.211
RRIRCRPPRLPRPRPRPWCTPRP | 0.023
RRIRCRPPRLPRPRPRPWDMPRP | -0.0934
RRIRCRPPRLPRPRPRPWEDPRP | 0.156
RRIRCRPPRLPRPRPRPWFVPRP | -0.629
RRIRCRPPRLPRPRPRPWGGPRP | 0.36
RRIRCRPPRLPRPRPRPWGSPRP | -0.151
RRIRCRPPRLPRPRPRPWHDPRP | -0.142
RRIRCRPPRLPRPRPRPWHVPRP | -0.259
RRIRCRPPRLPRPRPRPWIGPRP | -0.775
RRIRCRPPRLPRPRPRPWINPRP | 0.102
RRIRCRPPRLPRPRPRPWIPPRP | -0.457
RRIRCRPPRLPRPRPRPWNKPRP | -0.684
RRIRCRPPRLPRPRPRPWNPPRP | 0.228
RRIRCRPPRLPRPRPRPWPLPRP | 0.222
RRIRCRPPRLPRPRPRPWVEPRP | -0.689
RRIRCRPPRLPRPRPRPWVQPRP | -0.391
RRIRCRPPRLPRPRPRPWYVPRP | -0.461
RRIRCRPPRLPRPRPRPYCEPRP | -0.195
RRIRCRPPRLPRPRPRPYCRPRP | -0.0628
RRIRCRPPRLPRPRPRPYDLPRP | -0.325

Sequence | shrunken log2 fold change
RRIRCRPPRLPRPRPRPYDNPRP | -0.498
RRIRCRPPRLPRPRPRPYEHPRP | -0.554
RRIRCRPPRLPRPRPRPYEPPRP | -0.151
RRIRCRPPRLPRPRPRPYFKPRP | -0.931
RRIRCRPPRLPRPRPRPYFWPRP | -0.347
RRIRCRPPRLPRPRPRPYGQPRP | -1.33
RRIRCRPPRLPRPRPRPYIHPRP | -1.11
RRIRCRPPRLPRPRPRPYISPRP | -0.637
RRIRCRPPRLPRPRPRPYKNPRP | -0.984
RRIRCRPPRLPRPRPRPYLFPRP | -1.19
RRIRCRPPRLPRPRPRPYLMPRP | -0.916
RRIRCRPPRLPRPRPRPYMAPRP | -0.283
RRIRCRPPRLPRPRPRPYPLPRP | -0.191
RRIRCRPPRLPRPRPRPYPWPRP | -1.29
RRIRCRPPRLPRPRPRPYQKPRP | -0.0372
RRIRCRPPRLPRPRPRPYRFPRP | -0.746
RRIRCRPPRLPRPRPRPYRNPRP | 0.0132
RRIRCRPPRLPRPRPRPYRSPRP | 0.00395
RRIRCRPPRLPRPRPRPYRWPRP | -0.141
RRIRCRPPRLPRPRPRPYSAPRP | -0.752
RRIRCRPPRLPRPRPRPYTCPRP | -0.794
RRIRCRPPRLPRPRPRPYTFPRP | -0.883
RRIRCRPPRLPRPRPRPYVDPRP | -0.232
RRIRCRPPRLPRPRPRPYVHPRP | -1.53
RRIRCRPPRLPRPRPRPYWVPRP | -0.528

Sequence | shrunken log2 fold change
RRIRCRPPRLPRPRPRPYWWPRP | -0.441
RRIRCRPPRLPRPRPRPYYLPRP | -0.38
RRIRDRPPRLPRPRPRPAATPRP | 1.9
RRIRDRPPRLPRPRPRPACCPRP | 0.512
RRIRDRPPRLPRPRPRPACVPRP | 0.337
RRIRDRPPRLPRPRPRPAEAPRP | 0.314
RRIRDRPPRLPRPRPRPAEHPRP | -0.0618
RRIRDRPPRLPRPRPRPAFSPRP | -0.0405
RRIRDRPPRLPRPRPRPAGIPRP | -0.00461
RRIRDRPPRLPRPRPRPAGNPRP | 0.0407
RRIRDRPPRLPRPRPRPAHCPRP | -0.0402
RRIRDRPPRLPRPRPRPAHDPRP | 0.414
RRIRDRPPRLPRPRPRPAHKPRP | -0.0546
RRIRDRPPRLPRPRPRPAHSPRP | -0.143
RRIRDRPPRLPRPRPRPAKWPRP | 0.486
RRIRDRPPRLPRPRPRPAMHPRP | 0.527
RRIRDRPPRLPRPRPRPAMWPRP | 1.24
RRIRDRPPRLPRPRPRPANAPRP | -0.00277
RRIRDRPPRLPRPRPRPANGPRP | -0.0137
RRIRDRPPRLPRPRPRPAPHPRP | 0.852
RRIRDRPPRLPRPRPRPASIPRP | 0.0781
RRIRDRPPRLPRPRPRPASMPRP | 0.483
RRIRDRPPRLPRPRPRPASNPRP | -0.15
RRIRDRPPRLPRPRPRPATMPRP | 0.168
RRIRDRPPRLPRPRPRPAVAPRP | 0.309

Sequence | shrunken log2 fold change
RRIRDRPPRLPRPRPRPAVFPRP | -0.0356
RRIRDRPPRLPRPRPRPAVQPRP | -0.00697
RRIRDRPPRLPRPRPRPAYWPRP | -0.0729
RRIRDRPPRLPRPRPRPCAAPRP | 0.704
RRIRDRPPRLPRPRPRPCAMPRP | 0.259
RRIRDRPPRLPRPRPRPCATPRP | 0.00509
RRIRDRPPRLPRPRPRPCCRPRP | -0.197
RRIRDRPPRLPRPRPRPCGKPRP | 0.2
RRIRDRPPRLPRPRPRPCHKPRP | -0.00188
RRIRDRPPRLPRPRPRPCICPRP | 0.159
RRIRDRPPRLPRPRPRPCKHPRP | -0.181
RRIRDRPPRLPRPRPRPCKKPRP | -0.00395
RRIRDRPPRLPRPRPRPCKLPRP | -0.0175
RRIRDRPPRLPRPRPRPCKSPRP | -0.321
RRIRDRPPRLPRPRPRPCLVPRP | 0.148
RRIRDRPPRLPRPRPRPCREPRP | 0.123
RRIRDRPPRLPRPRPRPCRGPRP | -0.138
RRIRDRPPRLPRPRPRPCRNPRP | -0.000921
RRIRDRPPRLPRPRPRPCVAPRP | 0.633
RRIRDRPPRLPRPRPRPCVPPRP | -0.135
RRIRDRPPRLPRPRPRPCWHPRP | 2.46
RRIRDRPPRLPRPRPRPCWSPRP | -0.00281
RRIRDRPPRLPRPRPRPCWYPRP | -0.369
RRIRDRPPRLPRPRPRPCYDPRP | -0.129
RRIRDRPPRLPRPRPRPCYFPRP | -0.31

Sequence | shrunken log2 fold change
RRIRDRPPRLPRPRPRPDAEPRP | 1.23
RRIRDRPPRLPRPRPRPDAFPRP | 0.297
RRIRDRPPRLPRPRPRPDCKPRP | 0.0499
RRIRDRPPRLPRPRPRPDCLPRP | 0.779
RRIRDRPPRLPRPRPRPDCNPRP | 0.685
RRIRDRPPRLPRPRPRPDCRPRP | 0.249
RRIRDRPPRLPRPRPRPDERPRP | 0.0336
RRIRDRPPRLPRPRPRPDFDPRP | 0.541
RRIRDRPPRLPRPRPRPDFEPRP | 1.35
RRIRDRPPRLPRPRPRPDFQPRP | 0.189
RRIRDRPPRLPRPRPRPDHFPRP | -0.0133
RRIRDRPPRLPRPRPRPDIWPRP | 0.504
RRIRDRPPRLPRPRPRPDKMPRP | 0.0425
RRIRDRPPRLPRPRPRPDLIPRP | 0.126
RRIRDRPPRLPRPRPRPDLNPRP | -0.041
RRIRDRPPRLPRPRPRPDLVPRP | 1.16
RRIRDRPPRLPRPRPRPDNIPRP | -0.112
RRIRDRPPRLPRPRPRPDPLPRP | 0.64
RRIRDRPPRLPRPRPRPDQWPRP | 0.396
RRIRDRPPRLPRPRPRPDREPRP | -0.0481
RRIRDRPPRLPRPRPRPDRWPRP | 0.366
RRIRDRPPRLPRPRPRPDTCPRP | 0.00173
RRIRDRPPRLPRPRPRPDVTPRP | 0.149
RRIRDRPPRLPRPRPRPDVVPRP | -0.0108
RRIRDRPPRLPRPRPRPDYCPRP | -0.045
